Laboratory results taken from patent US20230125550A1 (ARCELLX, published 2023).
Substitutions are numbered along the chain they refer to.

T1: recombinant human CD123-Fc (human, UniProt P26951 19-305)
T1 construct: not shown: Fc part of CD123-Fc
T1 sequence: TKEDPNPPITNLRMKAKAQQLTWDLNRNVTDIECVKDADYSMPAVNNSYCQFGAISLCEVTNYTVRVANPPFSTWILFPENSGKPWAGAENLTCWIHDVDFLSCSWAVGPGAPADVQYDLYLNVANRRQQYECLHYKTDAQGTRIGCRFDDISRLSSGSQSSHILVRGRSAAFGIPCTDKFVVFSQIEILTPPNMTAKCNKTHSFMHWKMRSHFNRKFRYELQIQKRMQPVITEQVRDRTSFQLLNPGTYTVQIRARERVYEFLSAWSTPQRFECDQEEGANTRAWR

T2: AFP p26 (human, UniProt P02771 381-609)
T2 construct: The construct used is not described
T2 sequence: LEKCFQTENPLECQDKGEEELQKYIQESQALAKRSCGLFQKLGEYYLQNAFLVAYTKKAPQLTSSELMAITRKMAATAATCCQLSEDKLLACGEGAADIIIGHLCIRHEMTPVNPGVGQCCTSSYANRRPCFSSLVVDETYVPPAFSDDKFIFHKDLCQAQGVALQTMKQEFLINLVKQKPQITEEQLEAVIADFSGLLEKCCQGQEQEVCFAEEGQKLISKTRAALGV

B1: SEQ ID NO: 623 (designed binder)
chain: MGSWFEFETRLEAIDLRLWALGGSEAELATFEDVIAFFEDWLQFYKGKGNPEVEALKMEAWAIGEELHAYRHN
notes: D domain, on phage
B2: SEQ ID NO: 625 (designed binder)
chain: MGSWYEFEQRLEAIEWRLGALGGSEAELATFEEDIADFEEWLQEYKGKGNPEVEALQYEAYAIAEELHAYRHN
notes: D domain, on phage
B3: SEQ ID NO: 624 (designed binder)
chain: MGSWHEFWQRLEAIEGRLWALGGSEAELADFESLIADFEEQLQEYKGKGNPEVEALMAEAEAIDNELRAYRHN
notes: D domain, on phage
B4: SEQ ID NO: 626 (designed binder)
chain: MGSWYEFENRLFAIEERLWALGGSEAELAWFEYEIANFEWGLQSYKGKGNPEVEALDNEAEAIDIELAAYRHN
notes: D domain, on phage
B5: SEQ ID NO 741 (designed binder)
chain: MGSWHEFYDRLDAIYFRLWALGGSEAELAAFEKEIAAFESELQAYKGKGNPEVELLRLLAAEIRKELQAYRHN
B6: SEQ ID NO 777 (designed binder)
chain: MGSWTEFWHRLEAIDSRLWALGGSEAELAAFEKEIAAFESELQAYKGKGNPEVESLREHAAHIRVWLQAYRHN
B7: SEQ ID NO 783 (designed binder)
chain: B6 chain with T5L, W8S, H9Q, E12T, S55N, H62K, V65N
B8: SEQ ID NO 792 (designed binder)
chain: B6 chain with T5Y, W8Y, H9K, S16N, W19Y, S55Y, H62A, V65H
B9: SEQ ID NO 782 (designed binder)
chain: B6 chain with W8H, H9Q, E12D, S16E, S55F, H62K, V65M
B10: SEQ ID NO 774 (designed binder)
chain: B6 chain with T5Y, W8V, H9V, E12F, S16E, V65S
B11: SEQ ID NO 775 (designed binder)
chain: B6 chain with T5Y, W8Y, H9L, E12D, S16H, S55M, V65K
B12: SEQ ID NO 781 (designed binder)
chain: B6 chain with W8E, H9K, E12H, S16Y, S55D, H62A, V65H
B13: SEQ ID NO 784 (designed binder)
chain: B6 chain with W8V, H9N, E12Y, S55G, E58T, H62K, V65H
B14: SEQ ID NO 785 (designed binder)
chain: B6 chain with T5M, W8V, H9D, E12S, S16R, S55V, H62N, V65Q
B15: SEQ ID NO 766 (designed binder)
chain: B6 chain with T5F, W8Y, H9E, E12N, S55K, E58A, H62S, V65T
B16: SEQ ID NO 771 (designed binder)
chain: B6 chain with T5V, W8V, H9G, E12N, S16A, S55E, E58H, H62E, V65N
B17: SEQ ID NO 772 (designed binder)
chain: MGSWNEFMDRLNAIDNRLWALGGSEAELAAFEKEIAAFESELQAYKGKGNPEVENLRKQAASIRLWLQAYRHN
B18: SEQ ID NO 787 (designed binder)
chain: B6 chain with T5S, W8H, H9T, E12D, S16T, S55D, E58R, H62A, V65F
B19: SEQ ID NO 788 (designed binder)
chain: B6 chain with T5L, W8H, H9S, E12D, S16T, S55K, H62A, V65H, W66Y
B20: SEQ ID NO 779 (designed binder)
chain: B6 chain with T5S, W8F, H9K, S16R, S55E
B21: SEQ ID NO 795 (designed binder)
chain: B6 chain with T5Y, W8S, D15E, S16D, W19F, S55P, H62Y, V65H
B22: SEQ ID NO 794 (designed binder)
chain: B6 chain with T5Y, W8V, H9S, S16D, W19Y, S55M, E58Q, H62A, V65H
B23: SEQ ID NO 776 (designed binder)
chain: B6 chain with T5Y, W8R, H9A, E12L, S16E, S55H, V65N, W66F
B24: SEQ ID NO 749 (designed binder)
chain: B17 chain with N5F, M8Y, N16A, K58V, Q59H, S62A, L65E
B25: SEQ ID NO 769 (designed binder)
chain: B6 chain with T5E, W8Y, H9Y, S16A, W19F, S55E, E58V, V65D
B26: SEQ ID NO 768 (designed binder)
chain: B6 chain with T5S, W8V, H9K, E12D, S16Q, E58V, H62A, V65A
B27: SEQ ID NO 773 (designed binder)
chain: B17 chain with M8F, D9Q, N16E, N55D, K58Q, Q59H, S62N, L65W
B28: SEQ ID NO 770 (designed binder)
chain: B6 chain with T5V, W8H, H9Y, E12Q, S16A, S55E, E58V, V65K
B29: SEQ ID NO 793 (designed binder)
chain: B6 chain with T5Y, W8Y, H9Y, S16N, W19I, S55V, H62K, V65E
B30: SEQ ID NO 758 (designed binder)
chain: B6 chain with T5L, W8Y, E12N, E58D, V65E
B31: SEQ ID NO 778 (designed binder)
chain: B6 chain with W8Q, H9N, E12N, S16H, H62K
B32: SEQ ID NO 786 (designed binder)
chain: B6 chain with T5V, W8V, H9S, E12Y, S16F, S55A, H62Q, V65D
B33: SEQ ID NO 789 (designed binder)
chain: B17 chain with N5T, M8Y, D9Q, N12D, N16T, N55G, K58Q, S62Q, L65A
B34: SEQ ID NO 767 (designed binder)
chain: B6 chain with T5I, W8Y, H9W, S16Q, S55D, E58V, H62A, V65W
B35: SEQ ID NO 780 (designed binder)
chain: B6 chain with T5Y, W8Q, H9Q, S16T, S55E, V65H
B36: SEQ ID NO 744 (designed binder)
chain: MGSWVEFSGRLIAIDNRLWALGGSEAELAAFEKEIAAFESELQAYKGKGNPEVEYLRMWAAEIRYILQAYRHN
B37: SEQ ID NO 746 (designed binder)
chain: B36 chain with V5H, S8M, G9E, N16G, M58F, W59V, E62F, Y65D, I66V
B38: SEQ ID NO 742 (designed binder)
chain: B36 chain with V5H, S8I, G9T, I12E, N16Q, M58F, Y65F
B39: SEQ ID NO 743 (designed binder)
chain: B36 chain with V5M, S8F, G9D, I12V, N16E, Y65F, I66L
B40: SEQ ID NO 745 (designed binder)
chain: B36 chain with S8H, G9H, I12F, N16E, W59V
B41: SEQ ID NO 747 (designed binder)
chain: MGSWKEFIQRLDAIHYRLWALGGSEAELAAFEKEIAAFESELQAYKGKGNPEVEYLRFVAAFIRFELQAYRHN
B42: SEQ ID NO 748 (designed binder)
chain: B41 chain with K5S, Q9F, Y16S, W19Q, V59I, F62E, F65L, E66K

What follows are binders tested against T1, recombinant human CD123-Fc (assay: phage ELISA, captured CD123-Fc).
Summary of the method: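 Phage from BCMA panning colonies were rescued with VCSM13 helper phage and diluted 5× in blocking buffer. Plates coated with anti-human IgG1-Fc captured 5 nM target-Fc or IgG1-Fc, and binding was detected with HRP anti-M13. Ratio = A450 target/A450 IgG1-Fc, averaged over the clone's wells.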

Row | Binder | ELISA_avg [ratio A450 target/IgG1-Fc]
1 | B1 | 6.6
2 | B2 | 4.4
3 | B3 | 7
4 | B4 | 3.3

The binders below were run against T2, AFP p26 (assay: phage ELISA, A450 target/A450 IgG1-Fc).
Summary of the method: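 Using VCSM13 helper phage, phage were rescued in 96-well format from single phagemid colonies taken from panning output. Wells were coated with 1.3 microg/ml goat anti-human IgG1-Fc antibody and captured 5 nM recombinant human target or IgG1-Fc before 50 microl of 5×-diluted phage were added, with binding read at 450 nm via HRP-conjugated anti-M13 antibody. Each clone's ELISA ratio is its target-to-IgG1-Fc absorbance, averaged across all screened wells with that clone.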

Row | Binder | ELISA_avg [ratio]
5 | B5 | 9.6
6 | B6 | 13.2
7 | B7 | 30.4
8 | B8 | 30.8
9 | B9 | 24.4
10 | B10 | 18.2
11 | B11 | 16
12 | B12 | 17.1
13 | B13 | 16.7
14 | B14 | 32.1
15 | B15 | 27.1
16 | B16 | 26
17 | B17 | 10
18 | B18 | 23.5
19 | B19 | 30.8
20 | B20 | 30.2
21 | B21 | 26
22 | B22 | 33.1
23 | B23 | 20.9

Row | Binder | ELISA_avg [ratio]
24 | B24 | 5.92
25 | B25 | 30.3
26 | B26 | 27
27 | B27 | 28.7
28 | B28 | 14.8
29 | B29 | 29.6
30 | B30 | 19.2
31 | B31 | 30.5
32 | B32 | 29
33 | B33 | 29.7
34 | B34 | 9.4
35 | B35 | 27.3
36 | B36 | 5.28
37 | B37 | 17.9
38 | B38 | 16.9
39 | B39 | 18.6
40 | B40 | 21.4
41 | B41 | 18.4
42 | B42 | 28.3
